Reference: article PMC12117093
pKd: −log10 of the molar value.

Biological target: 5-IAF-labeled p53-TAD A63C mutant (UniProt P04637)
Test: fluorescence polarisation

- pKd: 4.38
Substance: FOXO4 Forkhead DNA-binding domain (FOXO4-DBD, residues 86-211) (from UniProt P98177 86-211) (domain or fragment)
